Data taken from patent US20250163117A1 (CURE GENETICS, published 2025).

Target: T1, human intermediate-affinity IL-2 receptor IL-2Rβγ on cells (human, UniProt P14784 27-551; P31785 23-369)
T1 sequence (looked up) 1: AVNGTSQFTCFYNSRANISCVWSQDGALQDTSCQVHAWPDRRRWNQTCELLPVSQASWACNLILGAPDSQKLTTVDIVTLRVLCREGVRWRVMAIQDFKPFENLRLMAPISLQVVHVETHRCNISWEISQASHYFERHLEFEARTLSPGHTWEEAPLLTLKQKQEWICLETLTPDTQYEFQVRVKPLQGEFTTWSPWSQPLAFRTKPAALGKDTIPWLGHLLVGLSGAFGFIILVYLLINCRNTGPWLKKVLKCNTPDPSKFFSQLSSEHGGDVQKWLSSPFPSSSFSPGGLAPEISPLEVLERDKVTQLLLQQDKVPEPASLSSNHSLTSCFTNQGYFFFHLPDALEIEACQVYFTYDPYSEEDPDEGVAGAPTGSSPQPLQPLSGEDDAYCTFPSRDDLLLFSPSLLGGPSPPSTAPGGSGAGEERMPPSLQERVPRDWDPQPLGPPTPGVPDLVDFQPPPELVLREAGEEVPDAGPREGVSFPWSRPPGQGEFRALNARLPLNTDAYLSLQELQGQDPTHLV
T1 sequence (looked up) 2: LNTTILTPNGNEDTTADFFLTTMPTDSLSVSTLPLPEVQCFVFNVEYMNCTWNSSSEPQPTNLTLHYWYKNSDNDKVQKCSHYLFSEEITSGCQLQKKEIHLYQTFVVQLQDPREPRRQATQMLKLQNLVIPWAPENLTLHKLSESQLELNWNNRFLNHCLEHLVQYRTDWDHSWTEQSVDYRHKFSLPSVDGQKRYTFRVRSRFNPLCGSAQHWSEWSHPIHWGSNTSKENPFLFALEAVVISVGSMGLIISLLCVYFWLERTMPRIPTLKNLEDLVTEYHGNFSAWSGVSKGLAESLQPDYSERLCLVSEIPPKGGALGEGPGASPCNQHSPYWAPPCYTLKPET
Assay: cell-based or functional assay

- EC50 (read off the curve): STAT5 phosphorylation in HH cells: ~6 nM
B1: CP-trIL-2 012 (ligand)
chain: PTSSSTKKTQLQLEHLLLDLQMILNGINNYKNPLRPRDLISNINVIVLELKGSETTELKHLQSLEEELKDLEEVLNLAQSKNFHTIVEFLNRWITFSQSIISTLT
notes: H1-H3-H2-H4; loops 1 and 2 removed; de-Ala1, C58S, C125S, P65D
